Assay results: patent publication US20240181074A1, “PEGYLATED T CELL ENGAGER WITH DUAL SPECIFICITIES TO CD3 AND CD19” (Shenzhen Enduring Biotech, Ltd., priority 2021, published 2024)

How the values were obtained:
[1] = test system: MS patients; settings: at 48 weeks; cited from earlier work
[2] = biological target: T1, human CD3E&3D (Homo sapiens, UniProt P07766); assay: BiaCore assay, binding to human CD3E&3D; settings: ligand human CD3E&3D captured on chip
T1 construct: purchased AcroBiosystems CDD-H52W0
Text: (§1) The anti-CD3 scFv (SCACD3) has the amino acid sequence set forth in SEQ ID NO: 2. The anti-CD19 scFv (SCACD19) has the amino acid sequence set forth in SEQ ID NO: 1. Methods for preparation of theses samples were described in detail in WO 2018/075308 A1.
(§2) General procedure: Diluted human CD19 (AcroBiosystems, Cat. CD19-H5259) or human CD3E&3D (AcroBiosystems, Cat. CDD-H52W0) were captured on the sensor chip through Fc capture method. The capture time for human CD3E & CD3D and for human CD19 was set for 12 s and 12-30 s respectively and capture flow rate was […]. Each sample tested was serially diluted into 6-8 concentrations. The association time and dissociation time for the analytes were set for 180 s and 420 s respectively, and the flow rate for the analyte was set at […]. For surface regeneration, 10 mM Glycine-HCl buffer was used; the contact time was set for 30 s and the flow rate was […]. Flow cell 1 and blank injection of buffer in each cycle were used as double references for Response Units subtraction. All data were processed using BiaCore T2000 Evaluation software (version 3.1).

[3] = biological target: T2, human CD19 (Homo sapiens, UniProt P15391); assay: BiaCore assay, binding to human CD19; settings: ligand human CD19 captured on chip
T2 sequence (P15391 20-291 limits assumed): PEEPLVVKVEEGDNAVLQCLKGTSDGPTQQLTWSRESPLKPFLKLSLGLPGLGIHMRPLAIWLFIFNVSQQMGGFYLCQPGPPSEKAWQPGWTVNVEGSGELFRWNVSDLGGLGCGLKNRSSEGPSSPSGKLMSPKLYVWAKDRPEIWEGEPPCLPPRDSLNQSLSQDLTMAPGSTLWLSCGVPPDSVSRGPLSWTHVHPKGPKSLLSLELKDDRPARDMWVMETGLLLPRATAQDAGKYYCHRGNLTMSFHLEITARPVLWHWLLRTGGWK
Text: as §1, §2

[4] = biological target: T3, human CD3E&CD3D protein (Homo sapiens, UniProt P07766); assay: ELISA assay, binding to human CD3E&CD3D protein; settings: coating concentration of 1 μg/ml, OD450
T3 construct: purchased AcroBiosystems CDD-H52W0
Method: (§3) Plates were coated with SCACD3, CD3-PEG and JY108 respectively at 100 μl/well. […] After coating, each plate was washed for 3 times with PBST (200 μL/well). Next, each plate was blocked with 5% BSA in PBST at 37° C. for 2 hours. After blocking, each plate was washed with PBST for 3 times followed by the addition of either […], 0.1 μg, and 0 μg human CD19-Fc protein (Acrobiosystems, Code: CD9-H5259) in 0.5% BSA in PBST (10 μg/mL, 1 μg/mL, 0 μg/mL, 100 μL/well) or […] human CD3E&CD3D (Acrobiosytems, Code: CDD-H52W0) in 0.5% BSA in PBST (10 μg/mL, 100 μl/well) to corresponding wells. The plates were incubated at 37° C. for 1 hour followed by washing with PBST for 3 times. 100 μL of […] HRP conjugated anti-human IgG (GenScript, Code: A01854) was then added to each well. The plates were incubated at 37° C. for 1.5 hours. After incubation, each plate was washed with PBST for 3 times followed by the addition of 100 μL of TMB to each well. The development reaction for each plate was set in dark for 15 minutes and terminated with 100 μL/per well of stop solution.

[5] = biological target: T2, human CD19; assay: ELISA assay, binding to human CD19 protein; settings: OD450
Method: as §3

[6] = human, in vivo; cited from earlier work
[7] = in vivo; cited from earlier work
[8] = test system: patients; settings: human, in vivo; cited from earlier work

T1 sequence (P07766 23-126 limits assumed): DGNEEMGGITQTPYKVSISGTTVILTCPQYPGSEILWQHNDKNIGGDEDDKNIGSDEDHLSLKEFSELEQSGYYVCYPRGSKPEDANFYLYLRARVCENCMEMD
T1 sequence (P04234 22-105 partner limits assumed): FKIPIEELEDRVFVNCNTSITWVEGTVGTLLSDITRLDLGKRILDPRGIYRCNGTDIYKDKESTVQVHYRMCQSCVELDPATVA
T3 sequence (P07766 23-126 limits assumed): as the sequence (P07766 23-126 limits assumed) above
T3 sequence (P04234 22-105 partner limits assumed): as the sequence (P04234 22-105 partner limits assumed) above

For rituximab: anti-CD20 antibody, the “MS patients experiencing relapse of the disease” value [1] is given as ~20%.

Substance “Blinatumomab: T-BsAb or BiTE (Bispecific T cell Engager) approved for ALL, redirecting T cells to CD19+ B cells; control drug” has a Kd [2] of 1.14 nM, a ka [2] of 1.08e+06 M⁻¹ s⁻¹ and a kd [2] of 0.00123 s⁻¹. For the same substance, the Kd [3] was 0.207 nM, the ka [3] was 1.92e+06 M⁻¹ s⁻¹ and the kd [3] was 0.000397 s⁻¹. For the same substance, the Kd ([3]; listed as blinatumomab) was 0.207 nM, the “ranking of affinity to human CD3E&CD3D” value [4] was “SCACD3>blinatumomab>JY108>SCACD3-PEG” and the “ranking of binding to human CD19” value [5] was “SCACD19>blinatumomab>JY108>SCACD19-linker”. For the same substance, the circulation half-life [6] was 1.25 h, the half-life [7] was “about 2 h” and the toxicity in patients [8] was “frequent cytokine release syndrome (CRS) and central nerve system (CNS) toxicity”.
